We go through three molecules from patent publication US11029303B2, “PAH antibodies and uses thereof” (The Administrators of the Tulane Educational Fund, priority 2015, dated 2021).

What all share (assay type): binding
Experiment [1] in a line: Cross-reactivity of scFv clones against EPA 16 PAHs (competitive ELISA). To be noted: for cross-reactivity / inhibition by the 16 EPA PAHs: 50 μM PAH, less than 20% decrease = non-reactive. The method, then:
(§1) Competitive ELISA was performed similar as described in Example 3, except that an anti-myc antibody (9E10) was added before applying goat-antimouse-HPR secondary antibody to detect myc-tag on scFv construct.
(§2) A real-world field sample is a complex mixture and contains a variety of PAH compounds. An understanding of the abilities of antibody to recognize various PAHs can greatly facilitate the development and application of these antibodies into field studies. In the final assessment, the inventors determined the cross-reactivity of these three scFv clones among 16 structurally related EPA priority PAH species via competitive ELISAs. First, the inventors inhibited the binding of scFv to the immobilized Phen-BSA by high concentrations (50 μM) of PAHs to determine if the scFv can recognize the ligand.

Experiment [2] is described as follows: Competitive flow cytometry of monoclonal yeast cells. To be noted: soluble Phen versus 2-MePhen. The method, then:
For flow cytometry, the yeast library was incubated in growth medium SD-CAA at 30° C. overnight for activation. The next day, activated yeast cells were diluted in induction medium SG/R-CAA at OD600=0.5, and cultured again at 30° C. for 16 hrs. After induction, 10^7 induced yeast cells (OD600=0.5) were washed twice with 0.5 ml wash buffer I (0.5% BSA supplemented with 2 mM EDTA), and once with 0.5 ml wash buffer II (0.5% BSA). Yeast cells were first incubated with 50 μl competitor (phenanthrene or 2-methylphenanthrene, 200 μM in PBS containing 1% DMSO) for 30 min with rotation at 25° C. An additional aliquot (50 μl) of biotinylated protein-conjugate (BSA-biotin, phen-BSA-biotin, or 2mp-BSA-biotin at concentrations between 1 and 100 nM) containing 2 μg/ml anti-myc antibody 9E10 was then added and the cells were incubated for another 30 min. Yeast cells were washed 3 times with wash buffer II and stained with 4 μg/ml goat-antimouse-PE (Life Technologies, Grand Island, N.Y.) and 10 μg/ml streptavidin-Alexa633 (Life Technologies, Grand Island, N.Y.) in the dark room at 4° C. for an hour. The stained yeast cells were washed three times with wash buffer II and resuspended in 1 ml PBS for flow-cytometry analysis. The selected yeast population was sorted into 2 ml pre-warmed YPD medium, and incubated at 30° C. without shaking for 30 min before transferring into 30° C. shaker for two days. The sorted pool was analyzed again by flow cytometry using the same staining procedure. […]
Yeast cells collected after 2nd sort were spread onto agar plates at various dilution level to obtain isolated single colonies. […] A total of 184 individual clones sorted from Pool 1 were picked and analyzed for their binding to Phen-BSA-Biotin in the presence of soluble Phen or 2-MePhen.

Experiment [3] is described as follows: Competitive ELISA with D7 in artificial seawater (ONR7a) and crude oil. The method, then: FIG. 74 is (A) a graph showing a comparison of competitive ELISA for phenanthrene, an abundant PAH in crude oil, in phosphate-buffered saline (ionic strength of serum) and ONR7a, an artificial environmental matrix that mimics seawater. The limit of detection of phenanthrene in this matrix is ˜1 μM. Compared with two buffer PBS and ONR7A (article seawater), the IC50s of two curves were no different than 2 fold.
FIG. 77 is a bar graph showing that the D7 antibody can detect the model PAH, phenanthrene in a background of crude oil (4 and 0.8 mL/L). At both concentrations of crude oil, the presence of 500 μM phenanthrene decreased the absorbance in the immunoassay by 30% (*, p<0.05).
The D7 antibody can detect phenanthrene in the presence of crude oil at concentrations similar to those found in oil spills (0.8-4 mL per liter of seawater). At both concentrations tested (0.8 and 4 mL crude oil/L of synthetic seawater), the D7 antibody was able to detect phenanthrene, as shown by the 30% decrease in absorbance in the competitive ELISA. This will form the basis for an ELISA to determine the measurement and degradation of PAHs in crude oil. (see FIG. 77).

A short description of experiment [4]: Cross-reactivity competitive ELISA, ligand indeno-[1,2,3-cd]-pyrene. The method, then:
as §1, §2

Experiment [5] is described as follows: Cross-reactivity competitive ELISA, ligand pyrene. To be noted: ligand 200 μM to 0.091 μM; read-out: affinity (IC50). The protocol: as §1, §2
Experiment [6] can be described thus: Cross-reactivity competitive ELISA, ligand fluoranthene. To be noted: ligand 200 μM to 0.091 μM; read-out: affinity (IC50). The protocol:
as §1, §2

Experiment [7] can be described thus: Competitive ELISA with purified scFv, ligand 2-MP. To be noted: Phen-BSA coated plate; 5% DMSO; read-out: affinity (IC50). The method, then: (§3) Competitive ELISA was performed in 96 well high binding plates (Corning, Corning, N.Y.). Each well was coated with 2 μg/ml antigen at 4° C. overnight and blocked with 3% BSA. Antibody scFv was incubated in the antigen-coated well with or without soluble competitor, and the binding of scFv was accessed using anti-myc antibody (9E10) and goat-antimouse-HPR antibody (Sigma Aldrich, MO). The HRP signal was detected by adding Sureblue TMB microwell peroxidase substrate (KPL, Gaithersburg, Md.) and the reaction was stopped after 5 minutes using 1 M HCl. The incubation steps were performed at room temperature for an hour. […]
(§4) Competitive ELISA or indirect ELISA was performed in 96-well high binding plates (Corning, Corning, N.Y.). […] The HRP signal was detected by adding Sureblue TMB microwell peroxidase substrate (KPL, Gaithersburg, Md.) and the reaction was stopped after 5 min using 1N HCl. The quantified signals were measured by reading […] values from microplate photometer. […]
(§5) Since A10, D7 and G8 represent three distinct family based on the sequence alignment, the inventors next explored the binding characteristics of these three clones as models to of the antibodies present in the immune library. Purified scFv were prepared and analyzed by competitive ELISA for their abilities to recognize unsubstituted phenanthrene or methylated phenanthrenes, as shown in FIG. 55. […]

The nature of experiment [8]: Competitive ELISA with purified scFv, ligand phenanthrene. To be noted: Phen-BSA coated plate; 5% DMSO. The method, then: as §3, §4, §5
Experiment [9] in a line: Competitive ELISA with purified scFv, ligand 9-MP. To be noted: Phen-BSA coated plate; 5% DMSO. The protocol: as §3, §4, §5
The nature of experiment [10]: Competitive ELISA with purified scFv, ligand 4-MP. To be noted: Phen-BSA coated plate. The protocol:
as §3, §4, §5

A short description of experiment [11]: Competitive ELISA with purified scFv, ligand 3-MP. To be noted: Phen-BSA coated plate; 5% DMSO. The method, then:
as §3, §4, §5

“Also recorded” adds a separate entry of the source.

B1: Clone D7: scFv, amino acid sequence SEQ ID NO: 42; binds unmethylated and methylated phenanthrenes alike (protein)
scFv: SAHAEAYLQQSGAELVRPGTSVKVSCKASGYAFTKYLIEWVKQRPGQGLEWIGVINPGSGSTSYNEKFRYKAILTADTSSSTAYMQLSSLTSDDSAVYFCATIPASYRSDSLDCWGQGTTVTVSSGGGGSGGGGSGGGARGGGGSDTTVTQSHKFMSTSVGDRVSITCKASQDVGTAVAWYQQKPGQSPKLLIYWASTRHTGVPDRFTGSGSGTDFTLTISNVQSEDLADYFCQQYSSYPWTFGGGTKLEMKRAS
For B1, the “sensitivity for fluoranthene, indeno-[1,2,3-cd]-pyrene and pyrene relative to phenanthrenes” value in [1] was “about 4 fold”. For the same molecule, in [2], the “inhibition of binding to Phen-BSA-Biotin by soluble competitors” value (“inhibition of binding to Phen-BSA-Biotin” for short) was “unable to distinguish between the 2 soluble competitors”. In [3] (500 μM phenanthrene, crude oil 4 and 0.8 mL/L), the “decrease in absorbance in the immunoassay” value was 30%. Also, the “activity in artificial seawater matrix (ONR7a)” value in experiment [3] (ONR7a) is given as “active”. For the same molecule, the IC50 came to 1.5 µM in experiment [4] (ligand 200 μM to 0.091 μM, read-out: affinity (IC50)); 1.5 µM in [5]; 1.5 µM in [6].

B2: Clone A10: scFv, amino acid sequence SEQ ID NO: 37; binds methylated phenanthrenes, prefers 2-methylphenanthrene (protein)
scFv: SAHAEAYLQQSGAELVKPGASVKLSCKASGYTFTSYWMHWVKQRPGQGLEWIGEINPRNGRSNYNEKFKNKATVTVDKYSNTAYMQLSSLTSDDSAVYYCTRDGGDYWGQGTTVTVSSGGGGSGGGGSGGGARGGGGSDIVLTQSHKFMSTSVGDRVSITCKASQDVGTAVAWYQQKPGQSPKLLIYWASTRHTGVPDRFTGSGSGTDFTLTISNVQSEDLADYFCQQYSSYPLTFGGGTKLEMKRAS
With B2, the “cross-reactivity / inhibition by the 16 EPA PAHs” value in experiment [1] (listed as A10) is on record as “None of the 16 PAHs showed significant inhibition; also recorded: no cross-reactivity to other PAHs”. The IC50 in [7] is 8.28 µM. For the same molecule, the “recognition of parent phenanthrene” value in [8] is “did not recognized”. Moreover, in experiment [2], the “inhibition of binding to Phen-BSA-Biotin” value is recorded as “some tendency for the 2-MePhen over unsubstituted Phen”. In addition, the “recognition of 9-MP” value in experiment [9] is “did not recognized”.

B3: Clone G8: scFv, amino acid sequence SEQ ID NO: 45; binds 4-methylphenanthrene most tightly (protein)
scFv: SAHAEAYLQQSGAELVRPGTSVKVSCKASGYVFTNFLIEWVKQRPGQGLEWIGVINPGNGGAAYNEKFKGKAILTADKSSSTAYMQLSSLTSDDSAVYFCARLPPSYDYDGDIDYWGQGTTVTVSSGGGGSGGGGSGGGARGGGGSDLVLTQSPASLAVALGQRATISCRASKSVTTSGYSLMHWYRQKPGQPPKLLIYPASNLESGVPARFSGSGSGTDFTLNIHPVEEEDAATYYCQHSRELPWTFGGGTKLEIKRAS
In the case of B3, the half-inhibitory concentration (IC50) was 0.94 µM in [10] and 14.4 µM in experiment [11]. In addition, in [10] (5% DMSO), the affinity entry is on record as “sub-micromolar”. Moreover, in experiment [1], the “cross-reactivity / inhibition by the 16 EPA PAHs” value was “some cross-reactivity to other PAHs”. In addition, the “inhibition of binding to Phen-BSA-Biotin” value in experiment [2] is given as “unable to distinguish between the 2 soluble competitors”. In addition, in [4], the “recognition of indeno-[1,2,3-cd]-pyrene” value is “did not recognize”.
